Measured values taken from patent publication US20230047179A1 (SYDDANSK UNIVERSITET, published 2023).
Positions count from the first letter of the chain named.

B1: mAS0326 (antibody, V domains shown)
VH: QVQLQQPGADLVKPGTSVKLSCKASGFTFTSYWMHWVKQRPGQGLEWIGVIHPNSGNTKYNEKFRSEATLTVDKSSNTAYIQLSSLTSEDSAVYYCAREMWNYGNSWYFDVWGTGTTVTVSS
VL: DVQIIQSPSYLAASPGETITINCRASKSISKYLAWYQERPGKTNKLLIYSGSTLQSGIPSRFSGSGSGTDFTLTISSLEPEDFAMYYCQQHNEYPFTFGAGTKLELK
notes: Murine hybridoma monoclonal antibody raised against human recombinant MFAP4; also called biotinmAS0326; bmAS0326
B2: Chimeric antibody (mAS0326 with human Fc, CHO expression) (antibody, V domains shown)
VH: B1 VH
VL: B1 VL
B3: HG HYB 7-5 (antibody, V domains shown)
VH: EVQLQQSGPELVKPGASVKLSCKTSGYTFTSYDMNWVKQRPGQGLEWIGWIFPRDGSTKFNEKFKGKATLTVDTSSTTAYMELHSLTSEDSAVYFCARAEIFFDYGFDYWGQGTTLTVSS
VL: DIVMTQSTALMAASPGEKVTITCSVSSSISSSNLHWYQQKSETSPKSWIYGTSNLASGVPGRFSGSGSGTSYSLTISSVEAEDAATYYCQQWSSYPLTFGGGTKLEIK
notes: also called biotinHYB7-5

Columns and labels:
recombinant mouse MFAP4 = biological target: T1, recombinant mouse MFAP4 (mouse, UniProt Q9D1H9 23-257); assay: direct ELISA, biotinylated antibody on coated recombinant mouse MFAP4, streptavidin-HRP
T1 construct: mature; The expression plasmid is pcDNA5/FRT/V5-His TOPO TA; also called murine MFAP4; mouse serum MFAP4
T1 sequence (looked up): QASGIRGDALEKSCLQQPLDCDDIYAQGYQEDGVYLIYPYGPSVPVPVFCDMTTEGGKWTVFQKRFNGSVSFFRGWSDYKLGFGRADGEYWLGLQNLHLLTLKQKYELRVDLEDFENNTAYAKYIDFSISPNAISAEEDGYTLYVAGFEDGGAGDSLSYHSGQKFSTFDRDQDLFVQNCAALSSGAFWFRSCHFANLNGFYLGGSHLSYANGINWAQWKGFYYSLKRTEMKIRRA
Experimental: (§1) 96-well plates (Nunc-MaxiSorp) (Nunc™) were coated with 0.5 μg recombinant mouse MFAP4, recombinant human MFAP4 and recombinant human MFAP4 with the RGD-sequence mutated to AAA in PBS O.N at 4° C. Coating was followed by washing and then blocking in TBS/Tw O.N at 4° C. Blocking was followed by addition of biotinylated antibodies diluted 2-fold from an initial concentration of 100 ng/ml. The plates were then incubated for 2 hours at R.T. The plates were washed three times in TBS/Tw and incubated for 20 minutes with Strepavidin Horseradish Peroxidase (HRP) conjugate (Invitrogen) diluted 1:2000 in TBS/Tw. After final three washes, the amount of bound enzyme was estimated by adding OPD (0.8 mg/ml, Kementec, Taastrup, Denmark) dissolved in substrate buffer (0.03% freshly prepared H₂O₂) and allowed to react for 15 minutes in the dark at RT. Colour development was stopped by the addition of 100 μl 1 M H₂SO₄, and the plates were read at OD₄₉₂ nm with OD₆₀₀ nm as reference.

recombinant human MFAP4 [1] = biological target: T2, recombinant human MFAP4 (human, UniProt P55083 22-255); assay: SPR, Biacore T200
T2 construct: mature; also called rhMFAP4; hrMFAP4
T2 sequence (looked up): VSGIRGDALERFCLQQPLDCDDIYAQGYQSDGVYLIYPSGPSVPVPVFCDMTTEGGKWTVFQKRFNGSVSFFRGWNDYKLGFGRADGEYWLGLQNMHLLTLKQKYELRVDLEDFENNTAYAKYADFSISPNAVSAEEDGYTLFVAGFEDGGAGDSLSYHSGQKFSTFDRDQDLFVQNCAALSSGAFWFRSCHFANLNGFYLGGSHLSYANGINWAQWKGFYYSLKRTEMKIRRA

recombinant human MFAP4 [2] = biological target: T2, recombinant human MFAP4; assay: competition ELISA on immobilized recombinant human MFAP4; competitor: biotinylated mAS0326 at 0.5 µg/ml
Experimental: (§2) Biotinylated A) HG HYB 7-5 (biotinHYB7-5), B) hAS0326 ([…]) and C) mAS0326 (bmAS0326) at a fixed concentration of 0.5 μg/ml were mixed with unlabelled IgG isotype control, HG HYB 7-18 (HYB7-18), HG HYB 7-5 (HYB7-5), hAS0326 and mAS0326 in a 2-fold dilution from 20 μg/ml. […] Only HG Hyb 7-5 was capable of inhibiting the HG HYB 7-5 interaction with target. In contrast, mAS0326 was capable of inhibiting hAS0326 binding to target and vice versa.
(§3) 96-well plates (Nunc-MaxiSorp) were coated with 0.5 μg recombinant human MFAP4 in PBS O.N at 4° C. followed by washing and then blocking in TBS/Tw O.N at 4° C. Biotinylated Mab (0.5 μg/ml) and unlabeled MAbs (diluted 2-fold from 20 μg/ml to 156 ng/ml) were premixed in a separate microtiterplate in TBS/Tw and then added to the MFAP4 coated microtiter plate. The plates were following incubated for 2 hours at R.T. The plates were washed three times in TBS/Tw and incubated for 20 min with Strepavidin Horseradish Peroxidase (HRP) conjugate (Invitrogen) diluted 1:2000 in TBS/Tw. […] Colour development was stopped by the addition of 100 μl 1 M H₂SO₄, and the plates were read at OD₄₉₂ nm with OD₆₀₀ nm as reference.

recombinant human MFAP4 [3] = biological target: T2, recombinant human MFAP4; assay: competition ELISA on immobilized recombinant human MFAP4; competitor: biotinylated hAS0326 at 0.5 µg/ml
Experimental: as §2, §3

[4] = biological target: T3, recombinant human MFAP4 with RGD integrin binding motif mutated to AAA (human, UniProt P55083 22-255); assay: direct ELISA, biotinylated antibody on coated recombinant human MFAP4 with RGD mutated to AAA, streptavidin-HRP
T3 construct: mature; also called human MFAP4 RGD-AAA mutation
T3 sequence (looked up): T2 sequence (looked up) with R5A, G6A, D7A
Experimental: as §1

recombinant human MFAP4 [5] = biological target: T2, recombinant human MFAP4; assay: competition ELISA on immobilized recombinant human MFAP4; competitor: biotinylated HG HYB 7-5 at 0.5 µg/ml
Experimental: as §2, §3

Row | Binder | binding result (recombinant mouse MFAP4) | Kd (recombinant human MFAP4 [1]) | IC50 (read off the curve) (recombinant human MFAP4 [2]) | IC50 (read off the curve) (recombinant human MFAP4 [3]) | binding result [4] | IC50 (read off the curve) (recombinant human MFAP4 [5])
1 | B1 | binds | 0.14 nM | ~0.9 µg/mL | ~0.9 µg/mL | – | –
2 | B2 | – | 0.504 nM | – | – | – | –
3 | B3 | no binding (tested: 100 ng/ml) | – | – | – | no binding (tested: 100 ng/ml) | ~0.8 µg/mL
